The target of the assay is T1, human α1A-adrenergic receptor (human, UniProt P35348 1-466).
T1 construct: Expressed in CHO-K1 cells either alone (α1A cells) or together with CRELD1α (α1L cells); also called ADRA1A; α1A-subtype
T1 sequence: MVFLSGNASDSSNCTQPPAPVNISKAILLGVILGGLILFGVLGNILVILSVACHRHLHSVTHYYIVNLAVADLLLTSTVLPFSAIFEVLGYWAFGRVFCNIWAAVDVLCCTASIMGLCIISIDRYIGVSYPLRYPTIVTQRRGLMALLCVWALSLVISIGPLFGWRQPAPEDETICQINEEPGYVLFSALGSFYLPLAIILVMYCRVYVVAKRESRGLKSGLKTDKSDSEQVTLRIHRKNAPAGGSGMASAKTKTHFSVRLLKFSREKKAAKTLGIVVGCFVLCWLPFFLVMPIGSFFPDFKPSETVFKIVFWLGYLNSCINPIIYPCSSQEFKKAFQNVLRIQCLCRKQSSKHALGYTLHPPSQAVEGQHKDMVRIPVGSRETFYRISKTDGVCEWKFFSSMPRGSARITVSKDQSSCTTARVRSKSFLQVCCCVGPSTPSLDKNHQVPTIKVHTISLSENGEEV
As to the kind of experiment: method not described; told in the description only.

The record followed here is patent US20100120068A1 (PHARMACOME, published 2010).

B1: CRELD (cysteine-rich with EGF-like domains) 1α protein (other)
chain: QPSPPPQSSPPPQPHPCHTCRGLVDSFNKGLERTIRDNFGGGNTAWEEENLSKYKDSETRLVEVLEGVCSKSDFECHRLLELSEELVESWWFHKQQEAPDLFQWLCSDSLKLCCPAGTFGPSCLPCPGGTERPCGGYGQCEGEGTRGGSGHCDCQAGYGGEACGQCGLGYFEAERNASHLVCSACFGPCARCSGPEESNCLQCKKGWALHHLKCVDIDECGTEGANCGADQFCVNTEGSYECRDCAKACLGCMGAGPGRCKKCSPGYQQVGSKCLDVDECETEVCPGENKQCENTEGGYRCICAEGYKQMEGICVKEQIPESAGFFSEMTEDELVVLQQMFFGIIICALATLAAKGDLVFTAIFIGAVAAMTGYWLSERSDRVLEGFIKGR
notes: The whole coding region was used; No signal peptide limits are stated; also called CRELD1α; CREDL1α
As for B1, the binding result is given as “binds”.
